Measurements published in patent US20190010233A1 (JIANGSU HYAMAB PHARMACEUTICAL, published 2019).
Where two headings read alike, the source gives them in different places.

Assays:
[1] = target: T1, human PD-L1^ECD-hFc protein (human, UniProt Q9NZQ7 19-239, biotinylated in the PD-1 binding ELISA (Table 3) and in the Octet assay (Table 12)); experiment: ELISA, 3 nM mAb
T1 construct: The plain and the biotinylated protein are kept as one molecule; also called PD-L1-hFc; Immunogen A; not shown: human IgG Fc fragment (hFc)

[2] = target: T2, cyno PD-L1^ECD-hFc protein (cyno, UniProt G7PSE7 19-239); experiment: ELISA, 3 nM mAb
T2 construct: also called Cyno Monkey PD-L1^ECD-hFc

[3] = target: T1, human PD-L1^ECD-hFc protein; experiment: ELISA, 30 nM mAb
[4] = target: T2, cyno PD-L1^ECD-hFc protein; experiment: ELISA, 30 nM mAb
[5] = target: T1, human PD-L1^ECD-hFc protein; experiment: ELISA, 0.3 nM mAb
[6] = target: T2, cyno PD-L1^ECD-hFc protein; experiment: ELISA, 0.3 nM mAb
[7] = target: T1, human PD-L1^ECD-hFc protein; experiment: ELISA, 0.03 nM mAb
[8] = target: T2, cyno PD-L1^ECD-hFc protein; experiment: ELISA, 0.03 nM mAb
[9] = target: T1, human PD-L1^ECD-hFc protein; experiment: ELISA, 0.003 nM mAb
[10] = target: T2, cyno PD-L1^ECD-hFc protein; experiment: ELISA, 0.003 nM mAb
[11] = target: T1, human PD-L1^ECD-hFc protein; experiment: ELISA, 0.0003 nM mAb
[12] = target: T2, cyno PD-L1^ECD-hFc protein; experiment: ELISA, 0.0003 nM mAb
[13] = target: T1, human PD-L1^ECD-hFc protein; experiment: ELISA, 0.00003 nM mAb
[14] = target: T2, cyno PD-L1^ECD-hFc protein; experiment: ELISA, 0.00003 nM mAb
[15] = target: T3, full length human PD-L1 on cells (human, UniProt Q9NZQ7 19-290); experiment: cell-based or functional assay
[16] = target: T3, full length human PD-L1 on cells; experiment: cell-based or functional assay; remark: listed apart in the source
[17] = target: T3, full length human PD-L1 on cells; experiment: cell-based or functional assay; remark: listed apart in the source
[18] = target: T3, full length human PD-L1 on cells; experiment: cell-based or functional assay; remark: listed apart in the source
[19] = target: T1, human PD-L1^ECD-hFc protein; experiment: ELISA receptor-ligand blocking assay: PD-L1 protein coated, fully human antibody titrated, blocked ligand PD-1, inhibition rate (%)
[20] = target: T1, human PD-L1^ECD-hFc protein; experiment: ELISA receptor-ligand blocking assay: PD-L1 protein coated, fully human antibody titrated, blocked ligand B7.1, inhibition rate (%)
[21] = target: T3, full length human PD-L1 on cells; experiment: cell-based or functional assay; remark: listed apart in the source

T2 sequence (G7PSE7 entry or part of it limits assumed): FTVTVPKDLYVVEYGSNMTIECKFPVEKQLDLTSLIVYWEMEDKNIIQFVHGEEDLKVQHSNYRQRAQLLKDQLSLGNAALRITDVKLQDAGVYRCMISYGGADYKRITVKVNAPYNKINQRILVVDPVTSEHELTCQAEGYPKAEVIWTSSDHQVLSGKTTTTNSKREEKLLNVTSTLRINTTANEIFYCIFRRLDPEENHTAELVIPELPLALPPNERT
T3 sequence (Q9NZQ7 19-290 limits assumed): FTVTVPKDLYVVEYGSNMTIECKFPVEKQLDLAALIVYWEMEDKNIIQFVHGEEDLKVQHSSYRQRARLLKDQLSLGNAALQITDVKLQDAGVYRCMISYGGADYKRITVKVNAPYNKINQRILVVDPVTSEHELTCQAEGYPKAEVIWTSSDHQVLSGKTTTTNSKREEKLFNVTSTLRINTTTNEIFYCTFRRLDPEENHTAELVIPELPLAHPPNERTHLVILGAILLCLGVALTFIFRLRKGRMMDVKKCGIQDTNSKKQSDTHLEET
T1 sequence (Q9NZQ7 19-239): as the sequence (G7PSE7 entry or part of it limits assumed) above, with T33A, S34A, N62S, Q68R, R82Q, L173F, A185T, I192T, L215H counted along it

| Binder | OD450 nm [1] | OD450 nm [2] | OD450 nm [3] | OD450 nm [4] | OD450 nm [5] | OD450 nm [6] | OD450 nm [7] | OD450 nm [8] | OD450 nm [9] | OD450 nm [10] | OD450 nm [11] | OD450 nm [12] | OD450 nm [13] | OD450 nm [14] | IFN-γ (pg/mL), T cell stimulation assay, 0.001 µg/mL mAb [17] [pg/mL] | IFN-γ (pg/mL), T cell stimulation assay, 0.01 µg/mL mAb [17] [pg/mL] | IFN-γ (pg/mL), T cell stimulation assay, 0.1 µg/mL mAb [17] [pg/mL] | IFN-γ (pg/mL), T cell stimulation assay, 1 µg/mL mAb [17] [pg/mL] | IC50 (read off the curve) [19] [nM] | IC50 (read off the curve) [20] [nM] | other results |
| --- | --- | --- | --- | --- | --- | --- | --- | --- | --- | --- | --- | --- | --- | --- | --- | --- | --- | --- | --- | --- | --- |
| fully human anti-PD-L1 antibody 73G11B3 (antibody, human IgG4 S228P, kappa, V domains shown, also called 73G11B3 (fully human)) VH: EVQLVESGGGLVQPGGSLRLSCVVSGFTFSSYWMSWVRQTPGKGLEWVANIKQDGSEKYYVDSVKGRLTISRDNAKNSLYLQMNSLRAEDTAVYYCVRDRAVPGTGALDIWGQGTMVTVSS VL: not shown | 2.72 | 2.65 | 2.67 | 2.6 | 2.48 | 2.52 | 0.855 | 1 | 0.403 | 0.358 | 0.254 | 0.283 | 0.256 | 0.308 | 6780 | 10900 | 13100 | 13500 | ~1 | ~0.9 | IL-2 (pg/mL), MLR, 0.001 µg/mL mAb [15]: 215 pg/mL; IL-2 (pg/mL), MLR, 0.01 µg/mL mAb [15]: 274 pg/mL; IL-2 (pg/mL), MLR, 0.1 µg/mL mAb [15]: 654 pg/mL; IL-2 (pg/mL), MLR, 1 µg/mL mAb [15]: 729 pg/mL; IL-2 (pg/mL), MLR, 10 µg/mL mAb [15]: 601 pg/mL; IFN-γ (pg/mL), MLR, 0.001 µg/mL mAb [16]: 9790 pg/mL; IFN-γ (pg/mL), MLR, 0.01 µg/mL mAb [16]: 10700 pg/mL; IFN-γ (pg/mL), MLR, 0.1 µg/mL mAb [16]: 21700 pg/mL; IFN-γ (pg/mL), MLR, 1 µg/mL mAb [16]: 21700 pg/mL; IFN-γ (pg/mL), MLR, 10 µg/mL mAb [16]: 16900 pg/mL; IFN-γ (pg/mL), T cell stimulation assay, 0.001 µg/mL mAb [18]: 5120 pg/mL; IFN-γ (pg/mL), T cell stimulation assay, 0.01 µg/mL mAb [18]: 6340 pg/mL; IFN-γ (pg/mL), T cell stimulation assay, 0.1 µg/mL mAb [18]: 9360 pg/mL; IFN-γ (pg/mL), T cell stimulation assay, 1 µg/mL mAb [18]: 8790 pg/mL; IFN-γ (pg/mL), T cell stimulation assay, 10 µg/mL mAb [18]: 13100 pg/mL |
| fully human anti-PD-L1 antibody 192D9E7 (antibody, human IgG4 S228P, kappa, V domains shown, also called 192D9E7 (fully human); 192D9F7) VH: EVQLVESGGGLVQPGGSLRLSCAASGFTFSSYWMSWVRQAPGKGLEWVADIKQDGSEKYYVDSVKGRFTISRDNAKNSLYLQMNSLRAEDTAVYYCTRDKPHWGGVMDAWGQGTSVTVSS VL: not shown | 2.67 | 2.66 | 2.59 | 2.54 | 2.52 | 2.55 | 0.786 | 0.953 | 0.322 | 0.376 | 0.285 | 0.348 | 0.287 | 0.324 | 6150 | 13100 | 11500 | 15200 | ~1 | ~0.8 | IL-2 (pg/mL), MLR, 0.001 µg/mL mAb [15]: 210 pg/mL; IL-2 (pg/mL), MLR, 0.01 µg/mL mAb [15]: 341 pg/mL; IL-2 (pg/mL), MLR, 0.1 µg/mL mAb [15]: 713 pg/mL; IL-2 (pg/mL), MLR, 1 µg/mL mAb [15]: 721 pg/mL; IL-2 (pg/mL), MLR, 10 µg/mL mAb [15]: 770 pg/mL; IFN-γ (pg/mL), MLR, 0.001 µg/mL mAb [21]: 592 pg/mL; IFN-γ (pg/mL), MLR, 0.01 µg/mL mAb [21]: 915 pg/mL; IFN-γ (pg/mL), MLR, 0.1 µg/mL mAb [21]: 1870 pg/mL; IFN-γ (pg/mL), MLR, 1 µg/mL mAb [21]: 2760 pg/mL; IFN-γ (pg/mL), MLR, 10 µg/mL mAb [21]: 2270 pg/mL; IFN-γ (pg/mL), MLR, 0.001 µg/mL mAb [16]: 9030 pg/mL; IFN-γ (pg/mL), MLR, 0.01 µg/mL mAb [16]: 11200 pg/mL; IFN-γ (pg/mL), MLR, 0.1 µg/mL mAb [16]: 19600 pg/mL; IFN-γ (pg/mL), MLR, 1 µg/mL mAb [16]: 22900 pg/mL; IFN-γ (pg/mL), MLR, 10 µg/mL mAb [16]: 15500 pg/mL |
| fully human anti-PD-L1 antibody 127D2F3 (antibody, human IgG4 S228P, kappa, V domains shown, also called 127D2F3 (fully human)) VH: EVQLVESGGGLVQPGGSLRLSCVASGFTFSSYWMSWVRQAPGKGLEWVANIKQDGSEKYYVDSVKGRLTISRDNAKNSLYLQMKSLRAEDTAVYYCARDPIYSSYFDYWGQGILVTVSS VL: DIQMTQSPSSLSASVGDRVTITCRASQSISNYLNWYQQKPGKAPKLLIYAASSLQSGVPSRFSGSGSGTDFTLTISSLQPEDFAAYYCQQSYGIPFTFGPGTKVDIKR | 2.68 | 2.6 | 2.59 | 2.59 | 2.48 | 2.49 | 0.852 | 0.889 | 0.329 | 0.332 | 0.264 | 0.28 | 0.281 | 0.297 | 5090 | 11200 | 9340 | 14100 | ~2 | ~1 | – |
